US9114109B2, “Five-coordinate neuroglobin and use thereof as a blood substitute” (University of Pittsburgh—Of the Commonwealth System of …, priority 2009, dated 2015)
Substitutions are numbered along the chain they refer to. Names may count otherwise.

Tests used:
[1] = Determination of nitrite binding constants to met-Ngb (difference spectra titration); settings: met-Ngb 10 μM, 200 mM phosphate buffer, pH 7.4, 25° C.; read-out: Kd (NO2^−)
Procedure: To determine the binding constant of nitrite to metNgb, 10 μM wild type and mutant Ngb in 200 mM phosphate buffer, pH 7.4, were incubated in a cuvette at 25° C. with increasing concentrations of nitrite and the UV—visible spectra were recorded after each increase in nitrite concentration. The constant KD for each protein was determined by interpolation of the absorbance data following procedures in Nicolis et al. (Biochem J 407:89-99, 2007).

[2] = test system: isolated rat liver mitochondria; assay: Hypoxic inhibition of respiration of isolated mitochondria; format: cell-based; settings: for inhibition of respiration (cyanide = 100%): 5 μM protein with 20 μM nitrite, hypoxia
Procedure: (§1) Mitochondria were isolated from the livers of male Sprague Dawley rats and incubated with wild-type or mutant Ngb proteins in a sealed, stirred chamber at 37° C. State 3 respiration was stimulated with succinate (15 mM) and ADP (1 mM) and oxygen consumption was measured with a Clark-type oxygen electrode. To measure inhibition of respiration in hypoxic conditions, respiring mitochondria were allowed to consume oxygen until the chamber became anoxic and then the chamber lid was removed to allow the diffusion of air back into the chamber. The rate of mitochondrial respiration was greater than the rate of oxygen entering the chamber such that the oxygen electrode trace remained at zero while the mitochondria were respiring. Nitrite was added to the chamber prior to the removal of the lid and deviation of the oxygen trace from a zero reading signified a decrease in respiration rate. All experiments were performed under conditions where substrates were not limiting. The extent of respiratory inhibition was quantified by measuring the time from equilibration of the mitochondria with air to the time when the oxygen trace deviated from zero. This time to inhibition was expressed as a percentage of maximal inhibition, where 100% inhibition was defined as the time to inhibition in the presence of cyanide and the time to the exhaustion of substrates was used as a measure of 0% inhibition. Similar experiments were performed with SHSY5Y cells suspended in the respirometer and treated with the uncoupler FCCP (5 μM) to measure hypoxic inhibition of cellular respiration.

[3] = Direct measurement of NO release in gas phase (chemiluminescence); format: biochemical
Source text: Once a stable baseline was established Ngb was reacted with a known amount of nitrite as previously described (Huang et al., J Clin Invest 115:2099-2107, 2005).

[4] = EPR spectroscopy of iron-nitrosyl-heme formation from nitrite; format: biochemical; settings: 1 mM nitrite
Procedure: Iron nitrosyl species were measured by EPR spectroscopy using a Bruker EMX 10/12 spectrometer operating at 9.4 GHz, 5-G modulation, 10.1-milliwatt power, 327.68-ms time constant and 163.84-s scan over 600 G at 110 K as described previously (Basu et al., J Biol Chem 283:32590-32597, 2008; Azarov et al., J. Biol. Chem. 280:[…], 2005). The concentrations of Mb and Ngb species were determined by performing the double integral calculation and comparing to standard samples.

[5] = test system: SHSY5Y cells; assay: Hypoxic inhibition of cellular respiration in SHSY5Y cells expressing Ngb; format: cell-based; settings: cells stably transfected with GFP-tagged Ngb, nitrite added, FCCP
Procedure: as §1, with “Similar experiments were performed with SHSY5Y cells suspended in the respirometer and treated with the uncoupler FCCP (5 μM) to measure hypoxic inhibition of cellular respiration.” left out

[6] = Anaerobic reaction of deoxygenated globins with excess nitrite (nitrite reductase kinetics, absorption / stopped-flow spectroscopy); format: biochemical; settings: for relative percentage of the total absorbance change (Soret peak 425 nm) in the first 60 minutes: 0.1 M HEPES pH 7.4, H64L-Ngb normalized to 100%
Procedure: Oxygen contamination was prevented by application of positive argon pressure without a channel for gas escape. Concentrations of single species during reactions were determined by least squares deconvolution of the visible absorption spectrum into standard reference spectra using Microsoft Excel analysis. OxyNgb was included to confirm successful deoxygenation before the reaction. […] Fast kinetic studies were performed using an Applied Photophysics DX-17 stopped-flow instrument equipped with rapid-scanning diode array detection. […] To determine bimolecular rate constants all reactions were analyzed with Pro-K software (Applied Photophysics) using singular value decomposition followed by fitting of the reduced data matrix to a pseudo-first order kinetic model.

[7] = test system: SHSY5Y neuronal cells; assay: Determination of cGMP in SHSY5Y neuronal cells under hypoxia; format: cell-based; settings: 6 hours hypoxia (1% oxygen), no exogenous nitrite, cells expressing the protein
Procedure: SHSY5Y cells, expressing the GFP vector, wild type Ngb or H64L mutant Ngb were plated on Corning® CellBIND® Surface 100 mm culture dishes at a concentration of 5-7.5×10^5 cells/plate and grown to 80-90% confluence. After four days of growth, the cells were incubated for 6 hours under hypoxic conditions (1% oxygen). Following hypoxic treatment, the cGMP levels were measured using the cyclic GMP EIA Kit (Cayman Chemicals catalog #581021) according to the manufacturer's instructions. Protein levels were measured and used to normalize results.

[8] = Reaction of met-Ngb with nitrite to produce nitrosyl-Ngb (nitrite ferric heme reduction); format: biochemical; settings: met-Ngb with nitrite in the presence of dithionite
[9] = Midpoint redox potential of the thiol/disulfide couple in Ngb (GSH/GSSG gradient, Nernst fit of kobs); format: physicochemical; settings: 37° C., 0.1 M phosphate buffer pH 7.0, GSH/GSSG
Procedure: Wild-type and C55A mutant Ngb (50-60 μM) were incubated at 37° C. in anaerobic glove box with solutions containing various ratios of reduced (GSH) and oxidized (GSSG) glutathione, with the total GSH and GSSG concentration fixed at 25 mM in 0.1 M phosphate buffer pH=7.0. The GSH/GSSG ratio was varied to establish a gradient of redox potentials between −130 and −250 mV, calculated by the Nernst equation according to a midpoint reduction potential of −240 mV (Yi et al., J Biol Chem 284:20556-20561, 2009). After at least 1 hour incubation, glutathione was removed by passage through a G25 column and Ngb was reacted immediately with 10 mM nitrite in 0.1 M phosphate buffer pH=7.0 as described above. The observed rate constant determined at each glutathione ratio was fitted using the Nernst equation and the midpoint reduction potential of the thiol/disulfide couple of Ngb calculated.

[10] = cited from earlier work

B1: H64L: stable five-coordinate mutant of human neuroglobin, His64 to Leu substitution, SEQ ID NO: 9 (protein)
chain: MERPEPELIRQSWRAVSRSPLEHGTVLFARLFALEPDLLPLFQYNCRQFSSPEDCLSSPEFLDLIRKVMLVIDAAVTNVEDLSSLEEYLASLGRKHRAVGVKLSSFSTVGESLLYMLEKCLGPAFTPATRAAWSQLYGAVVQAMSRGWDGE
Kd [1]: 0.17 ± 0.08 mM
inhibition of respiration (cyanide = 100%) [2]: 96±2%
rate of NO detected in gas phase (in words) ([3]; 20 μM Ngb, 1 mM nitrite, anaerobic): increased
NO generation with increasing amounts of nitrite (in words) ([3]; 30 μM protein, nitrite 10-1000 μM): a readily proportional NO generation response was observed
completion of iron-nitrosyl formation by EPR (in words) [4]: almost complete in one minute
rate of iron-nitrosyl-Ngb / NO formation by EPR (in words) ([4]; 40±5 μM protein): dramatically increased the rate of NO formation
extent of respiration inhibition compared to cyanide [5]: ~40%
BRC higher than the wild type Ngb ([6]; 100 μM nitrite, excess dithionite, relative to wild type): approximately 2000 fold
relative percentage of the total absorbance change (Soret peak 425 nm) in the first 60 minutes ([6]; 1 mM nitrite): 100%
time to end point of the reaction (in words) ([6]; 1 mM nitrite, pH 7.4): reached the end point in the first minute
BRC from linear fit of kobs versus nitrite concentration (stopped-flow) ([6]; nitrite 10-1000 μM, 25° C., pH 7.4): 259 ± 8 M⁻¹ s⁻¹
rate of nitrite reaction at acidic pH ([6]; pH 6.5 and 25° C.): above 2,500 M^−1 s^−1
nitrite reduction to NO, faster than wild type neuroglobin ([6]; relative to wild type): approximately 2000 times
cGMP levels (in words) [7]: significantly increased
BRC of nitrite ferric heme reduction [8]: 0.032 ± 0.002

B2: WT SS: recombinant wild-type human neuroglobin (SEQ ID NO: 8), as purified with the C46-C55 disulfide bond formed (protein, listed as Homo sapiens)
chain: B1 chain with L64H
modifications: C46-C55 disulfide
midpoint redox potential of the C46/C55 thiol/disulfide couple [9]: −194±3 mV
kon of NO for the ferrous Ngb heme [10]: 10^8 M^−1 s^−1
Kd [1]: 6.2 ± 2.1 mM
inhibition of respiration (cyanide = 100%) [2]: 78±6%
inhibition of respiration, incubated alone (in words) ([2]; nitrite 20 μM or protein 5 μM alone): No significant inhibition
extent of respiration inhibition compared to cyanide [5]: about 15%
relative percentage of the total absorbance change (Soret peak 425 nm) in the first 60 minutes ([6]; 1 mM nitrite): 38%
calculated BRC in the presence of dithionite ([6]; 10 mM nitrite, 10 μM deoxy-Ngb, 3 mM dithionite, pH 7.4, 100 mM phosphate buffer): 0.11 ± 0.01 M⁻¹ s⁻¹
second-order bimolecular rate constant from linear fit of kobs versus nitrite concentration ([6]; nitrite 0.25-20 mM, 100 mM phosphate buffer, 25° C.): 0.12 ± 0.02 M⁻¹ s⁻¹
acceleration of the reaction for each pH unit decrease ([6]; pH 6.5-8.0): 10 fold
slope of linear fit, order of rate dependence on [H^+] ([6]; pH 6.5-8.0): 0.96
instantaneous bimolecular rate constant (BRC) of reaction of nitrite with Ngb ([6]; pH 7.4, 25° C., 10 μM deoxy-Ngb, 10 mM nitrite, no dithionite): 0.12 ± 0.02 M⁻¹ s⁻¹
instantaneous bimolecular rate constant (BRC) of reaction of nitrite with Ngb ([6]; pH 7.4, 37° C.): 0.26 ± 0.02 M⁻¹ s⁻¹
BRC of nitrite ferric heme reduction [8]: 0.0005 ± 0.0005
